Results: patent US20200157212A1 (Pfizer, published 2020)

How the values were obtained:
[1] = molecular target: T1, Human ROBO2 KSR mutant overexpressed on HEK293 cells (human, UniProt Q9HCK4 22-1378); test: mutagenesis study
T1 construct: R100K and K102R already in the entry
T1 sequence: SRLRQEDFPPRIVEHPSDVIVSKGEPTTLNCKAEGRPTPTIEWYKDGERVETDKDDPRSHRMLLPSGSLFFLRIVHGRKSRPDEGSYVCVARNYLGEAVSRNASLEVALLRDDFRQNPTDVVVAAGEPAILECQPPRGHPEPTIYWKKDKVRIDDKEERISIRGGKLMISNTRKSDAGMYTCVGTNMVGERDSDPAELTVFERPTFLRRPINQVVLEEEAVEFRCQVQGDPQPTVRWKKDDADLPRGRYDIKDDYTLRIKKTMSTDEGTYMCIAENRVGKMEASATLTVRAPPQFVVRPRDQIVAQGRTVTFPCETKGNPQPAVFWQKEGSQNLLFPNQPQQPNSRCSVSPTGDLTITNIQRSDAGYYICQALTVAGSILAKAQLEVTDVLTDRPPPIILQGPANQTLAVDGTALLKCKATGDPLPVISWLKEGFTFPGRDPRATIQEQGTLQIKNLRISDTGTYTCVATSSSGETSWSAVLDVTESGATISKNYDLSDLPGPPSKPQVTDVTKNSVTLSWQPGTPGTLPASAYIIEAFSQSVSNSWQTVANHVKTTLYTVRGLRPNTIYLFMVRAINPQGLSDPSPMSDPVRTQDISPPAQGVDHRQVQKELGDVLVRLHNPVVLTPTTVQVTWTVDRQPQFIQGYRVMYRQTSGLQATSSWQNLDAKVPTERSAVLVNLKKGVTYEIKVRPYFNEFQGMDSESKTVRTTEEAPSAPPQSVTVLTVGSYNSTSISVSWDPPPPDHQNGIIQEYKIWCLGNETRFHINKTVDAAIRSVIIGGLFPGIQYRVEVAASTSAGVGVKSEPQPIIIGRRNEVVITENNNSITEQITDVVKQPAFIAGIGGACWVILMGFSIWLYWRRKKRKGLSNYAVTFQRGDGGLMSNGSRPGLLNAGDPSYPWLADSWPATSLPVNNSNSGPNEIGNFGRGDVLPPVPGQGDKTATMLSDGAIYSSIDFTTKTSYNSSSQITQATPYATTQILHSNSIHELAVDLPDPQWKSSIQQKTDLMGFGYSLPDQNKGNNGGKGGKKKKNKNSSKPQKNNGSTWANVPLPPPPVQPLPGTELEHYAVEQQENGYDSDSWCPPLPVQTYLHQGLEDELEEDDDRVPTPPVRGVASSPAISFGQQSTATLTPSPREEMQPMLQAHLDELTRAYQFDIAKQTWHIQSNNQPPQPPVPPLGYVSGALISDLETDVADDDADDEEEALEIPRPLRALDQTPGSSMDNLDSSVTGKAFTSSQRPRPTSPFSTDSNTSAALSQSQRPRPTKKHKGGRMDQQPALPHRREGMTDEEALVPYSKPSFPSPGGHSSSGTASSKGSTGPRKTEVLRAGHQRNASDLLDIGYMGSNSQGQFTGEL

[2] = molecular target: T1, Human ROBO2 KSR mutant overexpressed on …; test: flow cytometry on HEK293 cells overexpressing the ROBO2-KSR mutant
Procedure: Binding of the antibodies was detected using a secondary fluorochrome conjugated anti-human IgG F(ab′)₂ antibody and samples were analyzed on a Fortessa cytometer (BD Biosciences). The fold ROBO2 selectivity was calculated as the geometric mean fluorescence intensity (Geo MFI) with ROBO2 cells/Geo MFI with ROBO1 cells. A fold change higher than 3 was considered to be ROBO2 specific (Table 2, Fold Selectivity). Some affinity matured clones had increased ROBO1 reactivity, for example Abcs 55, CTI-R2-10 and CTIR2-13.
Based upon several criteria, Abcs25 and Abcs35 were selected for further characterization. Using flow cytometry, improvement in the binding EC₅₀ to human ROBO2 relative to the parental 93H2 was evaluated. […] Using HEK293 cells overexpressing either cynomolgus monkey ROBO2 or rat ROBO2, the relative dose-dependent binding of 93H2, Abcs25 and Abcs35 was evaluated as described above. […] Association of ROBO2 Ig1-Ig2-His (ROBO2) was measured over 5 minutes and dissociation was followed for a period of 10 minutes.
RSK specificity for Abcs35, along with 93H2 and Abcs25, also was confirmed in a cell-based binding assay using flow cytometry. […] As described above in Example 3, dose-dependent binding was evaluated.

[3] = molecular target: T2, Human ROBO2 Ig1-Ig2-His (human, UniProt Q9HCK4 31-220); test: SPR (Biacore T200), Abcs35 immobilized on a CM5 chip, ROBO2 Ig1-Ig2-His as analyte; column head kdis(1/s)
T2 construct: the His tag is named only in the SPR paragraphs; the Octet and ELISA paragraphs print 'ROBO2 Ig1-Ig2' without a tag; also called ROBO2 Ig1-2; Human ROBO2 Ig 1,2
T2 sequence: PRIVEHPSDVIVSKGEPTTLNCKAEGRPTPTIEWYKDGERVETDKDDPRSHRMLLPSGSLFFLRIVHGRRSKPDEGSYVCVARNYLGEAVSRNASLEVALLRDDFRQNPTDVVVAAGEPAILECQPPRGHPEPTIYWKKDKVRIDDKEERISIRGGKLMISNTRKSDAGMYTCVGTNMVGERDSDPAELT
Procedure: […] Association and dissociation were followed over time.
Based upon several criteria, Abcs25 and Abcs35 were selected for further characterization. Using flow cytometry, improvement in the binding EC₅₀ to human ROBO2 relative to the parental 93H2 was evaluated. Starting at 6.7 nM, 11-point, 3-fold dilution series were made for each antibody and used to stain HEK293 overexpressing human ROBO2 as described above for the ROBO2 fold selectivity (Example 2). […] In addition to measuring improved binding to human ROBO2, it was important to ensure that high affinity binding to both cynomolgus monkey ROBO2 and rat ROBO2 was maintained. Using HEK293 cells overexpressing either cynomolgus monkey ROBO2 or rat ROBO2, the relative dose-dependent binding of 93H2, Abcs25 and Abcs35 was evaluated as described above. High affinity binding to both cynomolgus monkey and rat ROBO2 was maintained in Abcs25 and Abcs35 (Table 4). […] Briefly, Abcs35 was immobilized to 300 resonance units (RU) on a CM5 chip. Association of ROBO2 Ig1-Ig2-His (ROBO2) was measured over 5 minutes and dissociation was followed for a period of 10 minutes.

B1: 93H2 (antibody, human IgG1, kappa, V domains shown)
VH: EVQLVQSGAEVKKPGASVKVSCKASGYTFTGYYMHWVRQAPGQGLEWMGWINPNSGATNFPQKFQGRVTMTRDTSITTAYMDLSRLRSDDTAVYYCARESGDDAFDIWGQGTMVTVSS
VL: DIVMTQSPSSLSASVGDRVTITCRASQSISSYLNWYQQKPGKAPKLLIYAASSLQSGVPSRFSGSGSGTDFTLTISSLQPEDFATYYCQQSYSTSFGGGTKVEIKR
notes: also called parental 93H2; 93H2 mAb
binding result [1]: no binding

B2: Abcs35 (antibody, human IgG1, kappa)
heavy: EVQLVQSGAEVKKPGASVKVSCKASGYTFTGYYMHWVRQAPGQGLEWMGWINPKNGDTEFPQKFQGRVTMTRDTSITTAYMDLSRLRSDDTAVYYCARESGDDAFDIWGQGTMVTVSSASTKGPSVFPLAPSSKSTSGGTAALGCLVKDYFPEPVTVSWNSGALTSGVHTFPAVLQSSGLYSLSSVVTVPSSSLGTQTYICNVNHKPSNTKVDKKVEPKSCDKTHTCPPCPAPEAAGAPSVFLFPPKPKDTLMISRTPEVTCVVVDVSHEDPEVKFNWYVDGVEVHNAKTKPREEQYNSTYRVVSVLTVLHQDWLNGKEYKCKVSNKALPAPIEKTISKAKGQPREPQVYTLPPSREEMTKNQVSLTCLVKGFYPSDIAVEWESNGQPENNYKTTPPVLDSDGSFFLYSKLTVDKSRWQQGNVFSCSVMHEALHNHYTQKSLSLSPGK
light: DIVMTQSPSSLSASVGDRVTITCRASQSISSYLNWYQQKPGKAPKLLIYAASSLQSGVPSRFSGSGSGTDFTLTISSLQPEDFATYYCQQSVGLFFGGGTKVEIKRTVAAPSVFIFPPSDEQLKSGTASVVCLLNNFYPREAKVQWKVDNALQSGNSQESVTEQDSKDSTYSLSSTLTLSKADYEKHKVYACEVTHQGLSSPVTKSFNRGEC
notes: fully human IgG1; VH of Ab96 with VL of Ab123
binding result [2]: no binding | koff [3]: 0.00793 s⁻¹
